# T1: PhoD (mPhoD) (Bacillus subtilis, UniProt P42251)
# T1 sequence (P42251 57-583): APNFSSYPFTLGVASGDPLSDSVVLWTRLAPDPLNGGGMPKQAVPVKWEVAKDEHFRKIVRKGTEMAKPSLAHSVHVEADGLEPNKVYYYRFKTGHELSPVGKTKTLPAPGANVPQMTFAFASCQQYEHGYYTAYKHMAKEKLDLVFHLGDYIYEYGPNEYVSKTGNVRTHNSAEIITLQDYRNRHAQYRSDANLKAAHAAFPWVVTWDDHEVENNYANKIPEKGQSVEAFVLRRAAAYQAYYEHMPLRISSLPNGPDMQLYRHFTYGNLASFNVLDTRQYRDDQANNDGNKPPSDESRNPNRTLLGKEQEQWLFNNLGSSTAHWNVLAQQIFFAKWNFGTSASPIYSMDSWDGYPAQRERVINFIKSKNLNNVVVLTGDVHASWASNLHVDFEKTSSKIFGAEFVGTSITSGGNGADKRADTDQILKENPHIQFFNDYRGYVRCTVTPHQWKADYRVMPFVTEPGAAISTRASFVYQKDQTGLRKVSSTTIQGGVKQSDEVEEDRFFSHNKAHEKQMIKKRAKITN
# B1: PhoD (mPhoD) (Bacillus subtilis subsp. subtilis str. 168) (protein)
# chain: T1 sequence (P42251 57-583)
# notes: mature domain, signal peptide removed; N-terminal Strep-SUMO tag cleaved by Ulp1; E. coli BL21(DE3) cytoplasm
# Key:
# [1] = biological target: T1, PhoD (mPhoD); details: crystallised at pH 5.6 with phosphate; active site, coordinates Fe3+ and two Ca2+ ions; proposed product complex
# [2] = substrate: O=[N+]([O-])c1ccc(OP(=O)(O)O)cc1; assay: purified protein; assay type: biochemical, Bacillus subtilis; details: pH 8.0, 25 °C, 100 mM Tris-HCl, 2 mM CaCl2, Ca2+-supplemented enzyme
Molecule,"X-ray crystal structure, 2 Å [1]",Km [2] [µM],kcat [2] [s⁻¹]
O=P(O)(O)O [phosphate],the structure contains a phosphate molecule bound at the active site,–,–
B1,–,50,1.2

# Reference: article PMC4223295, “Crystal Structure of the Bacillus subtilis Phosphodiesterase PhoD Reveals an Iron and Calcium-containing Active Site” (The Journal of Biological Chemistry, 2014)
